Target: CLDN18.2 (亲和力检测, Table 2 ka/kd/KD)
Assay: affinity measurement, method not described

- Kd: 2.89 nM
Substance: IMAB362 (antibody)

— CN115969997A
